Earlier results in publication PMC4353500.

Assays:
Cavβ4b = Cavβ4b (UniProt D4A055)
Cavβ2a = Cavβ2a (UniProt Q08289)
Sequence of Cavβ2a (Q08289 whole entry): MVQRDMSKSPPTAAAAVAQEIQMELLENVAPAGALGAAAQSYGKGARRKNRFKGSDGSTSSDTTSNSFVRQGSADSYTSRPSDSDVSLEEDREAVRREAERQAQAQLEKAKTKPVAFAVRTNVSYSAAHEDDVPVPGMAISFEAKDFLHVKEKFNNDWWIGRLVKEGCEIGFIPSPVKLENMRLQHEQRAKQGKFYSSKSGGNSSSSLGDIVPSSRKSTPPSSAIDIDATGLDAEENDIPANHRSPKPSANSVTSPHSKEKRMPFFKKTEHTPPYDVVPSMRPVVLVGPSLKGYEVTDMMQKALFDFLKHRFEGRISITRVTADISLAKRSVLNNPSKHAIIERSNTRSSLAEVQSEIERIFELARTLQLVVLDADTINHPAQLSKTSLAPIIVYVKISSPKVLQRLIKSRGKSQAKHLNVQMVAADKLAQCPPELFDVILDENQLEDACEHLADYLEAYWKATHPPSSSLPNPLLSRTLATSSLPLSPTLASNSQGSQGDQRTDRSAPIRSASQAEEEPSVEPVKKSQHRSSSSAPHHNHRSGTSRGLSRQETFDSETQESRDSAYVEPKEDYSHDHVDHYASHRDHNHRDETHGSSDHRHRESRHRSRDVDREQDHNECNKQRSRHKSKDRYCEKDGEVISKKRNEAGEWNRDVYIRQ

Kd (Cavβ4b): 35 nM | Kd (Cavβ2a): 35 nM
Substance: RIM1 CTD (from UniProt Q99NE5)
